Target: TRIP8b (mouse (endogenous in forebrain cortex)) (UniProt Q8C437)
Test: co-IP

Chain of UniProt Q8C437 (Q8C437 whole entry): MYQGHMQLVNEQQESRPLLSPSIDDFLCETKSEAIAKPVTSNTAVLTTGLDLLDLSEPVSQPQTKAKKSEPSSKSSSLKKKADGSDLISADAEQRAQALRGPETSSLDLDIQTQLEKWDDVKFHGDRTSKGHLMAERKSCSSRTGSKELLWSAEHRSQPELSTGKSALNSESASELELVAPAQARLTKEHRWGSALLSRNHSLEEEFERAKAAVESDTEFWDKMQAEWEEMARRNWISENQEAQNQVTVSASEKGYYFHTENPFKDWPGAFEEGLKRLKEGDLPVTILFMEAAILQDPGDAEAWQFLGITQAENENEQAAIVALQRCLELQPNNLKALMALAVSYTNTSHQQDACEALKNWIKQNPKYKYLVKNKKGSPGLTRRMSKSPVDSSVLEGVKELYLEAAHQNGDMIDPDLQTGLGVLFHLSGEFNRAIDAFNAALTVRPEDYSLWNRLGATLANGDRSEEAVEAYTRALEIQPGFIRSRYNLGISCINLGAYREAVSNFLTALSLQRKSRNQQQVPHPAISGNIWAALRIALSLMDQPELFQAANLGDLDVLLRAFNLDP
Chain of HCN1 (O88704 whole entry): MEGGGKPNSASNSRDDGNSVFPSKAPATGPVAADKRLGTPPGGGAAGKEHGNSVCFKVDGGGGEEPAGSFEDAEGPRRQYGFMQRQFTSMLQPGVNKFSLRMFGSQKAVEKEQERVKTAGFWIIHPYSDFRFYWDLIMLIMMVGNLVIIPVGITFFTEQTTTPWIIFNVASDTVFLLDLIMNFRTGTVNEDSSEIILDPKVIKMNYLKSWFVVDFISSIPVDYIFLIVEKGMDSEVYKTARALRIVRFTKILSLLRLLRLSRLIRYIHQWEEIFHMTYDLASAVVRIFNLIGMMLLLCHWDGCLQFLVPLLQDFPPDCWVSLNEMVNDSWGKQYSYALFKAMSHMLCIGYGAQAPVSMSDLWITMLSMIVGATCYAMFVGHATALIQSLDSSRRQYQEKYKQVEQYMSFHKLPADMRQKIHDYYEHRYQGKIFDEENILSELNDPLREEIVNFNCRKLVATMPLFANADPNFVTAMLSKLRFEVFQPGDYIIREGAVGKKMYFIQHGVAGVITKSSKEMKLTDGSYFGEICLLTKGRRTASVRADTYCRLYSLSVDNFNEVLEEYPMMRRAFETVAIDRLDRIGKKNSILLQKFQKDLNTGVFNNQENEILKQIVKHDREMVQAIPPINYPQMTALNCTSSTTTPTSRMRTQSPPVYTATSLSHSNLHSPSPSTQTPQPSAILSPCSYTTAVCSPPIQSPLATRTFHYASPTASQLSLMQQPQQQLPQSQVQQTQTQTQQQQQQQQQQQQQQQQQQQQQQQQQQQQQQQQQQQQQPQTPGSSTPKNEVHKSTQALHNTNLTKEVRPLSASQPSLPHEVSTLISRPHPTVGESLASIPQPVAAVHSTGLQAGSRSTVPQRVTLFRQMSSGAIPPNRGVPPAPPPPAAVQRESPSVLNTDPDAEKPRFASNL

percent of HCN1 co-immunoprecipitated: < 50%
Substance: HCN1 (from UniProt O88704 1-910) (natural protein)

Reference: publication PMC2720631
